Positions count from the first letter of the chain named.
B1: 4G8 human IgG1 antibody (antibody, V domains shown)
VH: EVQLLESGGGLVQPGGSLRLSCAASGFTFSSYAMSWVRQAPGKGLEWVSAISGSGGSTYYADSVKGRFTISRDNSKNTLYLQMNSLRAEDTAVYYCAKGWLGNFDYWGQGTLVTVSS
VL: EIVLTQSPGTLSLSPGERATLSCRASQSVSRSYLAWYQQKPGQAPRLLIIGASTRATGIPDRFSGSGSGTDFTLTISRLEPEDFAVYYCQQGQVIPPTFGQGTKVEIK
notes: Wild-type and glycoengineered versions were used in the ADCC assay; also called IgG 4G8; 4G8 IgG
B2: 3F2 human IgG1 antibody (antibody, V domains shown)
VH: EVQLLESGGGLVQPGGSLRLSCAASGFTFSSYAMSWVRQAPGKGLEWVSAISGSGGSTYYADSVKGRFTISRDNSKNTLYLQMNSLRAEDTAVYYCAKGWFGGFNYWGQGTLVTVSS
VL: B1 VL with S30T, R31S, I50N, G51V, A52G, T54R, Q93I, V94M, I95L
notes: Wild-type and glycoengineered versions were used in the ADCC assay; also called IgG 3F2; 3F2 IgG
B3: 3F2 Fab fragment (Fab, V domains shown)
VH: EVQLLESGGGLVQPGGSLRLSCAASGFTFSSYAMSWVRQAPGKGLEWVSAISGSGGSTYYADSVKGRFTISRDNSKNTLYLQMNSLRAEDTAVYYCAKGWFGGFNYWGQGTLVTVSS
VL: B1 VL with S30T, R31S, I50N, G51V, A52G, T54R, Q93I, V94M, I95L
notes: also called Fab fragment 3F2; clone 3F2
B4: 4B3 human IgG1 antibody (antibody, V domains shown)
VH: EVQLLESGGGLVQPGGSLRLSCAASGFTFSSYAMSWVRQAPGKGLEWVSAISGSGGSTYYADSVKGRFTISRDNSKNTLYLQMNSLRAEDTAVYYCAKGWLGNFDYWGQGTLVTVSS
VL: B1 VL with R31S, S32N, I50Y, S53Y, T54I
notes: Human IgG1 format; also called 4B3 IgG
B5: 4G8 Fab fragment (Fab, V domains shown)
VH: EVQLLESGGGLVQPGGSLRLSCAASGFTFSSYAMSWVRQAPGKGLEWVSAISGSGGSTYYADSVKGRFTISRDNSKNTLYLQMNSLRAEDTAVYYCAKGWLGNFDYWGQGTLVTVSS
VL: B1 VL
notes: also called Fab fragment 4G8; clone 4G8

Assays:
[1] = molecular target: T1, human Fibroblast Activation Protein (FAP) ectodomain with C-terminal poly-lysine and 6xHis-tag (human, UniProt Q12884 27-760); assay: SPR (Biacore T100), His-tagged FAP captured by anti-His antibody, IgG as analyte (avidity)
T1 construct: Recombinant soluble antigen used in selections, ELISA and SPR; also called hu FAP; human FAP
Method: (§1) For immobilization carboxymethylated dextran biosensor chips (CMS, GE Healthcare) were activated with N-ethyl-N′-(3-dimethylaminopropyl)-carbodiimide hydrochloride (EDC) and N-hydroxysuccinimide (NHS) according to the supplier's instructions. The Penta His antibody was diluted with 10 mM sodium acetate, pH 5, to 40 μg/ml before injection at a flow rate of 10 μl/minute to achieve approximately 9000 response units (RU) of coupled protein. Following the injection of the ligand, 1 M ethanolamine was injected to block unreacted groups.
(§2) For kinetics measurements, human, mouse or Cynomolgus FAP extracellular domain was injected at 10 μl/min at 10 nM for 20 s (for Fab fragments) or at 20 nM for 25 s (for IgG) and was captured via its His tag by the immobilized penta His antibody. […] The following parameters were applied: Association time 180 s, dissociation 300 s (for Fab) or 900 s (for IgG), regeneration with 10 mM glycine pH 2 for 60 s between each cycle. Association rates (kₒₙ) and dissociation rates (koff) were calculated using a simple one-to-one Langmuir binding model (BIACORE® T100 Evaluation Software version 1.1.1) by simultaneously fitting the association and dissociation sensorgrams (model parameters were local Rmax and RI=0). The equilibrium dissociation constant (KD) was calculated as the ratio koff/kₒₙ.

[2] = molecular target: T2, murine Fibroblast Activation Protein (FAP) ectodomain with C-terminal poly-lysine and 6xHis-tag (mouse, UniProt P97321 27-761); assay: as above
T2 construct: also called mu FAP; murine FAP
Method: as §1, §2

[3] = molecular target: T3, Cynomolgus Fibroblast Activation Protein (FAP) ectodomain with C-terminal poly-lysine and 6xHis-tag (cynomolgus monkey, UniProt Q12884 27-760 (human entry)); assay: as above
T3 construct: also called cyno FAP; Cynomolgus FAP extracellular domain
Method: as §1, §2

[4] = molecular target: T4, murine Fibroblast Activation Protein (FAP) on stably transfected HEK293 cells (mouse, UniProt P97321 1-761); assay: FACS on HEK293 cells stably transfected with murine FAP
T4 construct: whole, on cells; also called murine FAP

[5] = molecular target: T5, DPPIV (CD26) on stably transfected HEK293 cells (UniProt P27487 1-766); assay: FACS on HEK293 cells stably expressing DPPIV, PE goat anti-human IgG Fc gamma detection
T5 construct: whole, on cells; also called dipeptidyl peptidase IV

[6] = molecular target: T6, HER2 on stably transfected HEK293 cells (UniProt P04626 23-1255, limits assumed); assay: FACS on HEK293 cells stably expressing HER2, PE goat anti-human IgG Fc gamma detection
T6 construct: whole, on cells

[7] = molecular target: T7, human Fibroblast Activation Protein (FAP) on cells or in tissue (human, UniProt Q12884 1-760); assay: FACS on HEK293 cells stably transfected with human FAP
T7 construct: whole, on cells; Expressed on stably transfected HEK293 cells, on the human fibroblast cell line GM05389, on human tumor cell lines and in human tumor tissue sections; also called human FAP; hFAP

[8] = molecular target: T1, human Fibroblast Activation Protein …; assay: SPR (Biacore T100), His-tagged FAP captured by anti-His antibody, Fab as analyte
Method: as §1, §2

[9] = molecular target: T2, murine Fibroblast Activation Protein …; assay: as above
Method: as §1, §2

[10] = molecular target: T3, Cynomolgus Fibroblast Activation …; assay: as above
Method: as §1, §2

Binder | Kd [1] | Kd [2] | Kd [3] | EC50 [4] | binding result [5] | binding result [6] | EC50 [7] | Kd [8] | Kd [9] | Kd [10]
B1 | 0.051 nM | 0.001 nM | 0.059 nM | 1.7 nM | no binding (tested: 30 µg/ml) | no binding (tested: 30 µg/ml) | 5 nM | – | – | –
B2 | 0.039 nM | 0.029 nM | 0.042 nM | 1 nM | no binding (tested: 30 µg/ml) | no binding (tested: 30 µg/ml) | 4.8 nM | – | – | –
B3 | – | – | – | – | – | – | – | 13 nM | 14 nM | 11 nM
B4 | – | – | – | 1.6 nM | no binding (tested: 30 µg/ml) | no binding (tested: 30 µg/ml) | 5.5 nM | – | – | –
B5 | – | – | – | – | – | – | – | 74 nM | ≤ 7 nM | 56 nM

Reference: patent US20160060356A1 (Hoffmann-La Roche, published 2016)
